Reference: publication doi:10.1101/2022.06.15.495552, “A network of DZF proteins controls alternative splicing regulation and fidelity”

B1: C-rich (GC-rich) 24-mer dsRNA, Zfr-RBNS1 (dsRNA)
RNA 1: AAUGACACCCAAAAUGACACCCAA
RNA 2: UUGGGUGUCAUUUUGGGUGUCAUU
B2: C-rich (GC-rich) 12-mer dsRNA, Zfr-RBNS1 (dsRNA)
RNA 1: AAUGACACCCAA
RNA 2: UUGGGUGUCAUU
B3: U-rich (AU-rich) 12-mer dsRNA, Zfr-RBNS3 (dsRNA)
RNA 1: AAUGUUGUAAAA
RNA 2: UUUUACAACAUU
B4: U-rich 24-mer RNA : A-rich DNA hybrid, Zfr-RBNS3 (DNA:RNA)
RNA: AAUGUUGUAAAAAAUGUUGUAAAA
DNA: TTTTACAACATTTTTACAACATT
B5: U-rich (AU-rich) 24-mer dsRNA, Zfr-RBNS3 (dsRNA)
RNA 1: AAUGUUGUAAAAAAUGUUGUAAAA
RNA 2: UUUUACAACAUUUUUUACAACAUU
B6: C-rich 24-mer RNA : G-rich DNA hybrid, Zfr-RBNS1 (DNA:RNA)
RNA: AAUGACACCCAAAAUGACACCCAA
DNA: TTGGGTGTCATGGGTGTCAT

What was measured:
ZFRlong;ILF2 (29-390) [1] = target: T1, ZFRlong;ILF2 (29-390) (human;human?, UniProt Q96KR1;Q12905 317-1074;29-390, |); experiment: EMSA; 4 mM Mg2+; EMSA: 20 mM HEPES pH 7.5, 150 mM K acetate, 4 mM Mg acetate, 1 mM DTT, 0.5 uM nucleic acid, 1 h on ice; 8% native PAGE in 0.5x TBE at 4 C; conditions: protein: recombinant;recombinant, tags: N-terminal His6;N-terminal His6, copies: 1;1, blunt
T1 sequence (Q96KR1 317-1074, chain 1 of 2): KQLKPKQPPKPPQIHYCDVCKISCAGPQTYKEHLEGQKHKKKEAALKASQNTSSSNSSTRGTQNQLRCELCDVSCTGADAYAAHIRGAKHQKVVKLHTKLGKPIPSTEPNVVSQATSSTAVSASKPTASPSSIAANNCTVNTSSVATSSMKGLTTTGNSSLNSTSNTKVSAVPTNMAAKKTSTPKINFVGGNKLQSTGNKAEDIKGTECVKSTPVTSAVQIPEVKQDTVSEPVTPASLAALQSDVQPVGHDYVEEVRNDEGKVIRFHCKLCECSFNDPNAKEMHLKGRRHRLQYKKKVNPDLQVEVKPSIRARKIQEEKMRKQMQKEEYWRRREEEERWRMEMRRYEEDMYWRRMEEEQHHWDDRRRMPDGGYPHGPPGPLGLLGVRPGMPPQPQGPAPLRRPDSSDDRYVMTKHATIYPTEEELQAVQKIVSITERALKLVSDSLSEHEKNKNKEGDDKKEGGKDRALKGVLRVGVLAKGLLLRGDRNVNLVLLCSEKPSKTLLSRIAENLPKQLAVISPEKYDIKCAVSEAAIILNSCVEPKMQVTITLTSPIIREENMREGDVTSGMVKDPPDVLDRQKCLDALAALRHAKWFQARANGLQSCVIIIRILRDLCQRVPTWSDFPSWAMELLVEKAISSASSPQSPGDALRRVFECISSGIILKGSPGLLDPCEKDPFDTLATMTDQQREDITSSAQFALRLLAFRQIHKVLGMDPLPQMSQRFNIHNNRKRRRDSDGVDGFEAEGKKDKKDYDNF
T1 sequence (Q12905 29-390, chain 2 of 2): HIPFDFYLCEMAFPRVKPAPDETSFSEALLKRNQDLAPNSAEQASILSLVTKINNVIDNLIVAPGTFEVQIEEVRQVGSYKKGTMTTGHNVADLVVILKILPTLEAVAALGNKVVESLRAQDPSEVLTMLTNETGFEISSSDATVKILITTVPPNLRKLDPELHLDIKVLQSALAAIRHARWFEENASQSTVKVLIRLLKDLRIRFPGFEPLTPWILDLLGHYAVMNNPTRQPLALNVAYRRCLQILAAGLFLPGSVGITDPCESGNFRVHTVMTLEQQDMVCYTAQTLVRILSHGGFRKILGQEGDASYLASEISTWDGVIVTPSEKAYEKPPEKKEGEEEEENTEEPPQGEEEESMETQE

ZFRlong;ILF2 (29-390) [2] = target: T1, ZFRlong;ILF2 (29-390); experiment: EMSA; 4 mM Mg2+; affinity similar to 24-mer dsRNA; EMSA: 20 mM HEPES pH 7.5, 150 mM K acetate, 4 mM Mg acetate, 1 mM DTT, 0.5 uM nucleic acid, 1 h on ice; 8% native PAGE in 0.5x TBE at 4 C; conditions: protein: recombinant;recombinant, tags: N-terminal His6;N-terminal His6, copies: 1;1, label: Cy5 on RNA strand (5' per Methods), RNA:DNA duplex
[3] = label: Cy5 on strand 1 (5' per Methods)
[4] = label: DY681 on strand 1 (5' per Methods)

Row | Binder | Kd (ZFRlong;ILF2 (29-390) [1]; [3]) [nM] | Kd (ZFRlong;ILF2 (29-390) [1]; [4]) [nM] | further results
1 | B1 | ~300 |  | 
2 | B2 |  | ~800 | 
3 | B3 |  | ~800 | 
4 | B4 |  |  | binding result (ZFRlong;ILF2 (29-390) [2]; printed DNA 1 nt short): binds
5 | B5 | ~300 |  | 
6 | B6 |  |  | binding result (ZFRlong;ILF2 (29-390) [2]; printed DNA 4 nt short): binds
